This note sets out measurements from the supplement of paper PMC12042874.

± gives the uncertainty stated by the source.

The nature of the data set: amyloid nucleation score (Sup35N fusion, yeast selection) (log enrichment); library NNK2; higher = more nucleation; inactive = no reads after selection. The essentials:
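The nucleation score equals the log enrichment of output over input reads from DiMSum, centred on the mode score of non-aggregating sequences. It was computed only for sequences with 100 or more input reads. The reads came from Illumina sequencing of plasmid inserts from psi-negative yeast expressing Sup35N fused to peptides of 20 random codons, induced with 100 μM copper sulfate for 24 hours and grown 7 days at 30°C without adenine and uracil.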
With ELFFCFKRLHGLMGYNDLES, the amyloid nucleation score amounted to 4.13 ± 0.063.
Next, LSHKSVRAKENPIQSSQCES: 1.2 ± 0.33; LVKCHANGCFPYLSTIFIRP: 0.156 ± 0.41.
Next, PPLYSFVQYMRGFANNVISG: 0.227 ± 0.49.
Next, ISVFLVMQRCVYDSYAFQAE: -0.503 ± 0.63.
Substance FLRNPPYESTTQGGRPKGAH yielded an amyloid nucleation score of 0.134 ± 0.51.
Next, NNDYFTEGAGKGVTLIGALG: 4.443 ± 0.041; YVAILFRFRRSIMFNLLIQM: -0.318 ± 0.8; RANGLSFCTSLLLGEYLNNG: 2.63 ± 0.078.
Substance LTIPEMNQGLQLSLSIHAQM yielded an amyloid nucleation score of -0.902 ± 0.63.
Next, FYWNMYGDFDFDPSAPGTNG: “inactive”.
Take CANFRSGYGA: the amyloid nucleation score was -0.241 ± 0.35.
Next, NVHDEWKGFVSGTCGKVEKA: 0.355 ± 0.29.
Next, KLQTLLQWFGLY: -0.392 ± 0.41.
Next, DVLFDITNNGHSSLLAAV: 0.224 ± 0.8; VSIIRIKYSNQAISVRNSDS: 4.155 ± 0.038.
Substance QFWHKSVSTCLWCCSVAGSW showed an amyloid nucleation score of 8.73 ± 0.071.
Next, YGQMVLRPFDTFVARQ: -1.05 ± 0.48.
Take VIYLVLGKTRLNIELSVLST: the amyloid nucleation score amounted to 1.16 ± 0.45.
Turning to DLLRPSGMFFCYGQFYCLKC, the amyloid nucleation score is -1.05 ± 0.39.
Next, DHAYYDTSCGIRTPFVMIVR: “inactive”; LLRLRECQV: 2.73 ± 0.14; LRNVRMYDLSLWSRGTRCEG: 0.88 ± 0.28.
Next, CMRGLVKAGMIMTVFDRLSY: -1.22 ± 1.1; PTMHVRVSG: 0.495 ± 0.28.
Next, MPPHSVSVITNSHF: “inactive”; DALLNFTRLSITNNVNIGP: 5.894 ± 0.046.
FNCGASKNSLKNEGKW came in with an amyloid nucleation score of -0.925 ± 0.63.
Next, LCENWSSLFITMKPYDFSFP: -0.43 ± 1.1.
As for DVFWKPVYARYFFHRVCMRE, the amyloid nucleation score result was “inactive”.
RTCSRGSFTYMEIGNVGRGC: the amyloid nucleation score is 0.275 ± 0.5.
Next, MKYSSFINLLPTTWQHYTMN: -0.119 ± 0.65; LYEMDSKC: -0.603 ± 1.1.
Next, GAMTSMDVCL: -0.062 ± 0.65; LNMTSFAVKLEANYL: -0.565 ± 1.1; SLAQDVRGYGLCNGKTNIVW: -0.867 ± 0.35.
In turn, FDHHRGGNTLMQGDLLVMDF yielded an amyloid nucleation score of 0.925 ± 0.67.
Next, HLCPTHLNNETLRTNFWAN: 1.96 ± 0.19; NSVRFSRLKRFSNCMFNHWR: 0.284 ± 0.65.
Regarding KWKASVSFFNGHWDGLFANL, the amyloid nucleation score was found to be 5.07 ± 0.056.
Take SVALSQVLEKVWESVPKELN: the amyloid nucleation score amounted to 0.62 ± 0.62.
With IRFRVLVPNLGKASDRFQVP, the amyloid nucleation score was -0.19 ± 0.53.
Next, YRMCLLRYT: -0.936 ± 0.55; LNQCWRI: “inactive”; IVSAKCYRIMVDFYYGYFRL: 0.01 ± 0.65.
Next, VYCEDGY: 0.641 ± 0.36.
GHYKFSIVFPVACLIDRFSF showed an amyloid nucleation score of 5.13 ± 0.089.
Next, GYDLYLTEWRSVFTAVIANE: -0.055 ± 1.1.
The substance ILDRYLVHGI returned an amyloid nucleation score of -0.394 ± 0.78.
Next, FYSFLFFHPIGMFARVYKCF: “inactive”.
Next, ICQRVDCSLCGPGWCTFVEH: 9.398 ± 0.051.
CSNLSV showed an amyloid nucleation score of 0.167 ± 0.28.
Next, FFNMMSK: -1.72 ± 0.62; TTGRKFMMIVTGGCGESGRF: -0.77 ± 0.42; YNKSSYE: -1.47 ± 1.1.
For PYQAIHYVNRCGFWLTASCA, the amyloid nucleation score was 0.36 ± 0.62.
Next, RYGRRSYLPAIIRCARCLDE: 6.56 ± 0.066; PWTRWGVSFAFKAVNKCVHV: -1 ± 0.76.
Next, DNLNRAKFDLELVESGFWVV: “inactive”; NMNGF: -0.532 ± 1.
Next, GVVISCWRLWWDTDMMHR: 0.007 ± 0.24; YNFRSSLRNGYKEVRGVQYG: 5.221 ± 0.043.
Consider LIFQVMFVDCIEFRCWNMAL, for which the amyloid nucleation score stood at 0.959 ± 0.6.
Next, IYLRESSVYILVFLRTFLVA: -0.542 ± 0.64; GNRDMGVVNGRYVTAVTS: 0.422 ± 0.26; TAGWIFEWTFGPVYVFNSPW: 8.016 ± 0.061.
Next, QSLVIN: 4.58 ± 0.05; LYVRRYNWSHVGFHFCGLDT: -0.384 ± 0.79.
Next, CDLKERTEYMHFLLTFYLVR: -0.891 ± 0.36.
SLAWARISGVVAICTVGRGF gave an amyloid nucleation score of 7.44 ± 0.032.
Regarding KMDSRSKTMRWYSCGSD, the amyloid nucleation score stood at 1.53 ± 0.26.
Next, LFIGSIILHYGEKEVKMLAT: 0.571 ± 0.49; FDLVGDGYCNYALEYTRLNM: -1.15 ± 1.1; QERSILGLHWYICRVAKLSF: 0.196 ± 0.64.
As for VLSNKFI, the amyloid nucleation score entry is “inactive”.
With MGLVDGMCMFDFDLVLAVVG, the amyloid nucleation score entry was “inactive”.
Next, TSYTLDYCGISMLKYFNSVD: 7.188 ± 0.062; SWLIDLTRHSFLI: -1.25 ± 0.78.
Next, RIYLGRQYYRSEGLKQLVNG: 0.151 ± 0.63.
Next, SSLHACA: 2.21 ± 0.29.
Turning to WSGLFVKKNVVFRVRNGVT, the amyloid nucleation score is -0.089 ± 1.1.
YSERSTEGQ gave an amyloid nucleation score of 0.698 ± 0.26.
Next, IPYNLIASVMLFKDLNWFAK: 6.491 ± 0.05.
Next, CHVVVVLEF: 2.71 ± 0.078; VSQFYSMPLTSSYWSLVSSL: 0.147 ± 0.65; PQINMGVLAGGVYHYSTCGK: 0.196 ± 0.74.
Next, PPNVLDCFNVL: -0.501 ± 0.64; IYQIGDEQHDFLCPLKVFVN: -0.336 ± 0.76; VVTKQMSRFS: 0.701 ± 0.51.
Take SSAGC: the amyloid nucleation score is -1.23 ± 0.55.
The substance AGSSS registered an amyloid nucleation score of -0.561 ± 0.63.
Next, CYSVFSLY: -0.81 ± 1; RFYRSVNFKLYLVA: “inactive”; KMLSMDNYD: 0.043 ± 1.
Next, MYPSG: 0.321 ± 0.49; SKCWESREQGYMYMEWGFEG: 0.219 ± 1; PRSNCLHCFLLPLSNIVLCA: 4.66 ± 0.049.
Next, VFCSSRFCIEECGC: -0.453 ± 0.64.
Consider YDLLGHKAVFEGERVNW, for which the amyloid nucleation score was found to be 0.003 ± 0.4.
Next, LCDGAMRMCGWMKLGVQLGV: 2.82 ± 0.15; CPSWFLSGDKCFYRGESSEN: -0.184 ± 0.63.
Next, NTVHWSDSCRLFPHRDQQCF: -0.694 ± 0.61; ICGVSFTGAIYARGGRLRIR: 0.145 ± 0.63.
Next, LPYHCNWHMLSYLTCGYCS: 0.711 ± 0.6; DDLSMRVVRLRNVTLYHYFG: 3.21 ± 0.088; QFSYLYLVMASRSLTAVIIV: -0.887 ± 0.3.
In the case of LNSMF, the amyloid nucleation score was found to be 0.056 ± 0.31.
Next, LCHEQLCGFRMFCYSHGR: 3.58 ± 0.11; SWVFVWLSH: -0.256 ± 1.1.
WHDIQALTSMDVGRYLGDAI gave an amyloid nucleation score of -0.696 ± 0.26.
Next, YFRVFFFLMSIYTDKN: “inactive”; SRFIAWSFT: -0.038 ± 1.1; RNYEGPPGDLGQQVLSHSMP: -0.853 ± 0.63.
Next, IMSSV: “inactive”; STFSYGCSSTGAFCRLLCRM: 0.516 ± 0.64; AVCTESMLWS: 0.057 ± 0.16.
Turning to DRSSMTG, the amyloid nucleation score was determined as 0.698 ± 0.21.
On to LCNNPNGGIGQLKVL, for which the amyloid nucleation score came out at 0.515 ± 0.64.
Next, CNIVRSYCLL: -0.937 ± 0.5; VWLCCLCWVQMDLANVNLWL: 8.315 ± 0.053.
Substance QVCFHDQ gave an amyloid nucleation score of -0.589 ± 0.48.
Turning to DTCWEGCLTKTYFW, the amyloid nucleation score was -1.29 ± 0.75.
Next, TSCGCTW: 0.092 ± 1.1; CFVKRLHVLWLSKTVCRAVL: 0.113 ± 0.21; ANKSAGVLYNAASDLRVGVR: 0.923 ± 0.55.
Next, ENNFYY: 0.953 ± 0.26.
NTYYFKALT yielded an amyloid nucleation score of 0.072 ± 1.1.
Next, SSLWVWYLIVD: 0.145 ± 0.21; KFTLCWRTRMAFMSPWLMRI: “inactive”.
Next, LKLASSGVHCLLFSYCRMAE: 0.69 ± 0.62.
Next, LFFSCHRVDCHSALNMFIVS: 5.53 ± 0.065.
As for QYDSSFT, the amyloid nucleation score is -0.165 ± 0.55.
Next, DVAGKL: -0.151 ± 0.39.
Next, VSTLRQGWSILQTPNYVRS: -0.219 ± 0.76; NRCLGIT: 0.231 ± 0.48.
SVYPTSGRYYLYRSLIFVGD had an amyloid nucleation score of -0.57 ± 0.78.
Next, FLGEVCQWDRMIVARVKATR: -0.063 ± 0.29; LIVKCSYLSWQAGIWAGFGY: 2.9 ± 0.089; AEYPHAFFSDCACYHIPGSA: 0.586 ± 0.57.
Next, CECVSSCVYSVILLGCTRSF: “inactive”; RVCPFSQYHVFVS: -0.155 ± 0.18.
